From article PMC6128652, “Structure of the Cladosporium fulvum Avr4 effector in complex with (GlcNAc)6 reveals the ligand-binding mechanism and uncouples its intrinsic function from recognition by the Cf-4 resistance protein” (PLoS Pathogens, 2018)
Positions count from the first letter of the chain named. “Also recorded” adds a separate entry of the source.

B1: Q69N (protein)
chain: KAPKTQPYNPCKPQEVIDTKCMGPKDCLYPNPDSCTTYINCVPLDEVGNAKPVVKPCPKGLQWNDNVGKKWCDYPNLSTCPVKTPQ
modifications: left off: 6x His (two), N-terminal, state not stated
B2: K84A (protein)
chain: B1 chain with N40Q, K55A
modifications: left off: 6x His (two), N-terminal, state not stated
B3: W100A (protein)
chain: B1 chain with N40Q, W71A
modifications: left off: 6x His (two), N-terminal, state not stated

Assays:
[1] = system: germlings of Trichoderma viride; experiment: In vitro protection assay of T. viride germlings against chitinases; format: cell-based; settings: 5 μM protein with chitinases and β-1,3-glucanases; for protection of fungal hyphae against chitinases, fungal growth: 6–8 h
Procedure: The ability of the WT-CfAvr4 and of ChBD mutants to protect against chitinases was evaluated in in vitro protection assays conducted as described before. Briefly, spores of T. viride (3∙10^3) were pre-germinated overnight at room temperature in 100 μl of half-strength PDB medium in 96 well plates. The following day, 5 μM of WT-CfAvr4 or ChBD mutants were mixed with 7.5 units of Zymolyase (Zymo Research cat. no. E1004) and 0.2 units of bacterial chitinases (Sigma-Aldrich cat. no. C6137) and the mixture was added to the microtitre plate wells containing the pre-germinated spores in a final volume of 150 μl. Plates were incubated at 25°C for 6–8 h before evaluating under the microscope fungal growth and the ability of the proteins to provide protection against chitinases. Zymolase has β-1,3 glucanase and β-1,3-glucan laminaripentaohydrolase activity and is added to the mixture in order to remove the surface glucans from the fungal cell wall and thus expose the underlying chitin layer.

Cf-4 immune receptor = experiment: Pure protein infiltrations into tomato leaves of cv Purdue 135 (+ Cf-4), hypersensitive response; format: in vivo; settings: 5 dpi
Text: Tomato seeds were obtained from the Tomato Genetic Resource Center (TGRC) at UC Davis. WT-CfAvr4 and mutants thereof with single point mutations at selected amino acids were produced and purified from E. coli Rosetta-gami B cells as description above. […]

subtilisin = experiment: Subtilisin treatment (resistance against proteolytic degradation); format: in vitro ADME; set-up: key to Stability (Subtilisin assay): S: stable; PU: partially unstable; settings: for Stability (Subtilisin assay): 500 ng/μL subtilisin, 30 min, room temperature; for susceptibility to proteolytic degradation by subtilisin: 500 ng/μl subtilisin, band of mature CfAvr4 on SDS-PAGE
Procedure: The WT-CfAvr4 and selected mutants thereof were exposed to the non-specific protease subtilisin in order to determine their resistance against proteolytic degradation. Treatments with subtilisin were made as previously described with minor modifications. Briefly, 40 μM of the E. coli-produced CfAvr4 and the selected CfAvr4 mutants were mixed with 10 mM of calcium chloride and 500 ng/μL of subtilisin (Sigma-Aldrich) in a total volume of 15 μL. Samples were incubated for 30 min at room temperature, after which period they were denatured by mixing with 10 mM PMSF and SDS-PAGE loading buffer, and heating at 98°C for 10 min. Digestion products were visualized on an SDS-PAGE after staining with Coomassie blue.

Cf-4 = experiment: Agrobacterium tumefaciens transient transformation assay (ATTA): co-expression with Cf-4 in Nicotiana benthamiana leaves; format: in vivo; settings: N. benthamiana, three cell density ratios 0.5:1, 1:1, 2:1
Procedure: The Agrobacterium tumefaciens transient transformation assay (ATTA) was used for the transient co-expression into leaves of Nicotiana benthamiana of Cf-4 with the WT-CfAvr4 and the mutants thereof tested in this study. Briefly, N. benthamiana plants were grown in a growth chamber with 16 h of artificial light and 70% humidity, at 25°C for 4 weeks. The true mature form of the WT-CfAvr4 (i.e. between Lys30-Gln115) and of the mutants thereof were singly cloned into the binary expression vector pICH47742 downstream of the PR1A signal sequence of Nicotiana tabacum for targeted secretion into the apoplast, and under the control of CaMV 35S promoter and NOS terminator. The tomato Cf-4 was cloned into pMOG800 as descripted before. Binary vector plasmids were transformed into A. tumefaciens strain GV3101 by electroporation. For the ATTA assay, agrobacteria transformed with pMOG800:Cf-4 was grown in 10mL LB-mannitol medium (LB medium with 10 g/L mannitol) amended with 50 μg/mL kanamycin and 25 μg/mL rifampicin, whereas agrobacteria transformed with pICH47742:WT-CfAvr4 or pICH4774:CfAvr4-mutants were grown in LB-mannitol amended with 100 μg/mL carbenicillin and 25 μg/mL rifampicin. All cultures were incubated at 28°C for 2 days, after which period they were pelleted at 2800g for 15 min, re-suspended in MMAi medium (5 g/L Murashige and Skoog basal salts, 20 g/L sucrose, 10 mM MES, and […]) at an optical cell density (A600) of 2.0, and further incubated for 2–4 h at room temperature. Agroinfiltrations were performed by mixing agrobacteria containing pMOG800:Cf-4 with agrobacteria containing pICH47742_WT-CfAvr4 or pICH47742:CfAvr4-mutants at three different ratios of optical cell densities, i.e. A6000.5:A6001.0, A6000.5:A6000.5, and A6000.5:A6000.25 of. The mixture of agrobacteria was infiltrated into the leaves of N. benthamiana plants using a 1 mL syringe and the induction of an HR in the infiltrated leaf sectors was evaluated at 5 days post-infiltrations. Control infiltrations were made using only the pMOG800:Cf-4 transformed agrobacteria and the agrobacteria containing pICH47742:CfAvr4 or the mutants thereof without mixing the two cultures, at cell densities of A6000.25, A6000.5, and A6001.0.

[2] = Isothermal titration calorimetry (ITC) of CfAvr4 variants with chitin hexasaccharide; format: binding; settings: ITC; for increase in the Kd relative to WT-CfAvr4: (GlcNAc)6
Procedure: A stock solution of the monomer of N-acetylglucosamine was prepared by dissolving the dry powder in a buffer containing 10 mM Bis-Tris, pH 6.5, 100 mM NaCl to a concentration of 0.100 g/L using analytic techniques. Standard solution of 0, 0.010, 0.025, 0.050, 0.075 g/L were prepared by serial dilutions. Using glass test tubes and pipets, 100 μL of each standard was mixed with 300μL of concentrated sulfuric acid and vortexed for 10 sec to mix. Solutions were incubated at RT for 10 min and then placed on ice to stop the reaction. […] Analytically prepared solution of the di- and tri-saccharide scaled linearly to the calibration curve. To determine the concentration of the chitin hexasaccharide solutions used in ITC, the solutions were diluted into the dynamic range of the calibration curve (S12 Fig) and subjected to the above procedure.
All ITC experiments were performed on a TA Instruments low volume NanoITC with a 186uL reaction cell and a reference cell filled with degassed Milli-Q grade water. Reactions were run in a buffer containing 10mM Bis-Tris, pH 6.5, 100 mM NaCl. The reservoir solution was filled with protein solution and continuously stirred while Chitin hexasaccharide solutions titrated in 2.5μL aliquots for 19 injections, with an initial 1μL injection, for a total injection volume of 48.5μL. The carbohydrate solutions were made by dissolving the dry powder in buffer to a concentration of 20mM (confirmed using methods described above) and then diluted to the working concentration using the final buffer exchange flow through to match the buffers as closely as possible. The integrated heats, after correction for the heat of dilution were analyzed using the NanoAnalyze software from […]. An individual binding site model was used to fit the binding isotherm. All experiments were replicated a minimum of three times.

| Molecule | morphology of hyphae after chitinase treatment [1] | protection of fungal hyphae against chitinases, fungal growth [1] | Cf-4-mediated HR after protein infiltration (Cf-4 immune receptor; 5 μg/ml) | Cf-4-mediated HR after protein infiltration (Cf-4 immune receptor; 10 μg/ml) | Cf-4-mediated HR after protein infiltration (Cf-4 immune receptor; both 5 μg/ml and 10 μg/ml) | Stability (Subtilisin assay) (subtilisin) | susceptibility to proteolytic degradation by subtilisin (subtilisin) | HR on transient co-expression with Cf-4 (Cf-4) | increase in the Kd relative to WT-CfAvr4 [2] | effect of the mutation on binding to (GlcNAc)6 ([2]; compared with WT-CfAvr4) |
| --- | --- | --- | --- | --- | --- | --- | --- | --- | --- | --- |
| B1 | signs of osmotic injuries such as swollen segments and coagulated cytoplasm; also recorded: signs of osmotic injuries, such as swollen segments and coagulated cytoplasm | enable fungal growth to levels comparable to those of the WT-CfAvr4 | weak HR response | elicited an HR | only partially trigger an HR | PU | vulnerable to proteolytic degradation; also recorded: decreased intensity of this band | strong and similar in intensity HR | ~ 20 fold | – |
| B2 | signs of osmotic injuries such as swollen segments and coagulated cytoplasm; also recorded: signs of osmotic injuries, such as swollen segments and coagulated cytoplasm | enable fungal growth to levels comparable to those of the WT-CfAvr4 | – | – | strong and equal in intensity HR; also recorded: full HR; also recorded: strong and equally in intensity necrosis | S | as resilient to proteolysis as the WT-CfAvr4 | full HR; also recorded: strong and similar in intensity HR | ~ 20 fold | – |
| B3 | – | essentially failed to protect the fungal hyphae against chitinases; also recorded: fail to protect the fungal hyphae | – | – | strong and equal in intensity HR; also recorded: full HR; also recorded: strong and equally in intensity necrosis | S | as resilient to proteolysis as the WT-CfAvr4 | full HR; also recorded: strong and similar in intensity HR | – | abolished all detectable binding |
